From patent US20180362652A1

Assays:
[1] = molecular target: human C1q (human) (UniProt P02745); assay: C1q ELISA: antibody coated in a dilution series, human C1q at 2 µg/mL, read at 450 nm; column C (midpoint, the C value of paragraph 430) of the printed 4-parameter fit; the axis reads Concentration with no unit, the unit of the coated antibody is from the legend paragraph 61; A 0.06, B 2.093, D 1.573, R^2 0.997
[2] = molecular target: human C1q (human) (UniProt P02745); assay: C1q ELISA: antibody coated in a dilution series, human C1q at 2 µg/mL, read at 450 nm; fit of a flat curve; the unit is from the legend paragraph 61, none on the axis; A 0.06, B 41.873, D 0.09, R^2 0.735
[3] = molecular target: human BDCA2 (full-length, cell surface) (human) (UniProt Q8WTT0); assay: FACS dot plot (SSC-H against FL4-H) of the CHO cells with lower BDCA2 expression used in FIG 22B, stained with APC-labelled AC144; gate from about 2x10^1 to 10^4
[4] = molecular target: human BDCA2 (full-length, cell surface) (human) (UniProt Q8WTT0); assay: FACS dot plot (SSC-H against FL4-H) of the CHO cells EAG2456 T1F2 Clone 34.16.7 with high BDCA2 expression, stained with APC-labelled AC144; cells spread from about 10^1 to 10^4

Sequence of human C1q (human) (P02745 23-245 limits assumed, chain 1 of 3): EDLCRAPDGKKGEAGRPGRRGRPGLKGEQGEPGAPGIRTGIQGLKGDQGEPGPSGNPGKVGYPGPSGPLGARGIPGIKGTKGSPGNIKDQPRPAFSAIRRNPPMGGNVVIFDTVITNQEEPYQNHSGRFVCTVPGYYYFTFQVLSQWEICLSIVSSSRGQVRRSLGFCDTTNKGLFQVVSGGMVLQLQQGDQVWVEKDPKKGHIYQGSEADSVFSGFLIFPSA
Sequence of human C1q (human) (P02746 28-253 limits assumed, chain 2 of 3, further chain): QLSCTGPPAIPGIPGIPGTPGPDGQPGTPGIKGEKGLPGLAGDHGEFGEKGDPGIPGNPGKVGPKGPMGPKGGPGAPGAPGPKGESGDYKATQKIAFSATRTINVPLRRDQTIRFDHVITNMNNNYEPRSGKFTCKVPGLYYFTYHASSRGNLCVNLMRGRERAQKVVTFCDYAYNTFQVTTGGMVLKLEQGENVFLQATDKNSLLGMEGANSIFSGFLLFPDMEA
Sequence of human C1q (human) (P02747 29-245 limits assumed, chain 3 of 3, further chain): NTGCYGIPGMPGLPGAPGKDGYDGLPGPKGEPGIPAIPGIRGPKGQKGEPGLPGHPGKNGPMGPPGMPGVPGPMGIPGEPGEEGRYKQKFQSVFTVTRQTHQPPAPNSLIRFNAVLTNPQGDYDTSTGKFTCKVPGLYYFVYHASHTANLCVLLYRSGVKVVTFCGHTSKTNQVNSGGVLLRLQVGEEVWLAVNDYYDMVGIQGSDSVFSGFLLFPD
Sequence of human BDCA2 (full-length, cell surface) (human) (Q8WTT0 whole entry): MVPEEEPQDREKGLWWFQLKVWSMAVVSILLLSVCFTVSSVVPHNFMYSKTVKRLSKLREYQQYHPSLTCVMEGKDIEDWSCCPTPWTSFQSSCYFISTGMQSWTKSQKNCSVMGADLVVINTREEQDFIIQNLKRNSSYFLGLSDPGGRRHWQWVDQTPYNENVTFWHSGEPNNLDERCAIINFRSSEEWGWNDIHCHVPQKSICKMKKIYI
Sequence of 5C8 control (antibody) (heavy): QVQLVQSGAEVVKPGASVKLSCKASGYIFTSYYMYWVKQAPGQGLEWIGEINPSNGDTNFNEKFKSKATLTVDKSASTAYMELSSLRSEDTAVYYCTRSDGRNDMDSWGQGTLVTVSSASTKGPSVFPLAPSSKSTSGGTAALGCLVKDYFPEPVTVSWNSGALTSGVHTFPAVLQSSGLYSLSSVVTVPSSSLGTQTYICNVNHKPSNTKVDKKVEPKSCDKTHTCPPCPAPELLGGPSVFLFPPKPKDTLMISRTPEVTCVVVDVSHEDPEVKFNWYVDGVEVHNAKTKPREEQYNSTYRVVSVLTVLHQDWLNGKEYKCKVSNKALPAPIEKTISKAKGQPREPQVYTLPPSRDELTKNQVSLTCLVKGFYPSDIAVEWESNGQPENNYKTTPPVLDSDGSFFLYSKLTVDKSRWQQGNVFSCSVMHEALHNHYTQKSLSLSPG
Sequence of 5C8 control (antibody) (light): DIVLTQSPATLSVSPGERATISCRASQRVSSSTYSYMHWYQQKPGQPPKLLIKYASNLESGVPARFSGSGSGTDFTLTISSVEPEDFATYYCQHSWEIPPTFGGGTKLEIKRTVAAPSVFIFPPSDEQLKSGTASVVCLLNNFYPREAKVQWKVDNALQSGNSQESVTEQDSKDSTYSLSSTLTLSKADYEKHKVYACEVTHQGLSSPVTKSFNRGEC

5C8 control (antibody)
EC50 [1]: 2.21 µg/mL

5c8 G4P/G1agly (antibody)
C of the 4-parameter fit (midpoint), curve flat [2]: 0.062 µg/mL

anti-human BDCA2 AC144 mAb (Miltenyi Biotec) (antibody)
frequency printed in the gate BDCA2 (percent of cells) [3]: 87.8
frequency printed in the FL4-positive gate (percent of cells) [4]: 99.4
